Experiment [1] concerns the target MCR1 receptor (on MCR1 receptor-expressing B16-F1 cells) (UniProt Q01727 1-315). Description: cell-based or functional assay.
The experiment “ANP receptor (on ANP …)” has as its target ANP receptor (on ANP receptor-expressing LLC-PK1 cells). Kind of experiment: cell-based or functional assay.

Bridge positions count the residues as written; N and C are the ends. Square brackets hold non-standard residues; d marks the D form. Ends that are not written are not given here. Nle = CCCC[C@H](N)C(=O)O

Chain of MCR1 receptor (on MCR1 receptor-expressing B16-F1 cells) (Q01727 whole entry): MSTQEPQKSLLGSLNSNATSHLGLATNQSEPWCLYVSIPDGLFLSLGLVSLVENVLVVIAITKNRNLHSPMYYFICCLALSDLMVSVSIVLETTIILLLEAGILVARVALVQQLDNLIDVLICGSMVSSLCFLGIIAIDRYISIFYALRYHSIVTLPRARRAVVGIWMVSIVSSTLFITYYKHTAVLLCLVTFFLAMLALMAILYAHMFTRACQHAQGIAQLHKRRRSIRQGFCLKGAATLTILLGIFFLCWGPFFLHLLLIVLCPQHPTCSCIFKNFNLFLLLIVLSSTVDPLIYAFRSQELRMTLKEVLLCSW

B1: bifunctional hormone of SEQ ID NO: 44 (peptide)
peptide: Ac-H[dF]RWGKPMCFGGRMGAQSGLGCNSFRY-NH2
modifications: disulfide 9-22
SMILES: CSCC[C@@H]1NC(=O)[C@H](CCCNC(=N)N)NC(=O)CNC(=O)CNC(=O)[C@H](Cc2ccccc2)NC(=O)[C@@H](NC(=O)[C@H](CCSC)NC(=O)[C@@H]2CCCN2C(=O)[C@H](CCCCN)NC(=O)CNC(=O)[C@H](Cc2c[nH]c3ccccc23)NC(=O)[C@H](CCCNC(=N)N)NC(=O)[C@@H](Cc2ccccc2)NC(=O)[C@H](Cc2c[nH]cn2)NC(C)=O)CSSC[C@@H](C(=O)N[C@@H](CC(N)=O)C(=O)N[C@@H](CO)C(=O)N[C@@H](Cc2ccccc2)C(=O)N[C@@H](CCCNC(=N)N)C(=O)N[C@@H](Cc2ccc(O)cc2)C(N)=O)NC(=O)CNC(=O)[C@H](CC(C)C)NC(=O)CNC(=O)[C@H](CO)NC(=O)[C@H](CCC(N)=O)NC(=O)[C@H](C)NC(=O)CNC1=O
B1: in experiment [1], the “EC50 on the production of cAMP (BC16-F1 cells)” value (“EC50 on the production of cAMP” for short) was 1.2 nM.

B2: bifunctional hormone of SEQ ID NO: 29 (peptide)
peptide: [Nle]EHFGGR[Nle]DRISKYRH[dF]RW-NH2
modifications: lactam 2-13; N-terminus assumed
SMILES: CCCC[C@@H]1NC(=O)[C@H](CCCNC(=N)N)NC(=O)CNC(=O)CNC(=O)[C@H](Cc2ccccc2)NC(=O)[C@H](Cc2c[nH]cn2)NC(=O)[C@@H](NC(=O)[C@@H](N)CCCC)CCC(=O)NCCCC[C@@H](C(=O)N[C@@H](Cc2ccc(O)cc2)C(=O)N[C@@H](CCCNC(=N)N)C(=O)N[C@@H](Cc2c[nH]cn2)C(=O)N[C@H](Cc2ccccc2)C(=O)N[C@@H](CCCNC(=N)N)C(=O)N[C@@H](Cc2c[nH]c3ccccc23)C(N)=O)NC(=O)[C@H](CO)NC(=O)[C@H]([C@@H](C)CC)NC(=O)[C@H](CCCNC(=N)N)NC(=O)[C@H](CC(=O)O)NC1=O
B2: the “EC50 on the production of cGMP (LLC-PK1 cells)” value (“EC50 on the production of cGMP” below) with ANP receptor (on ANP …) was determined as 1430 nM.

B3: bifunctional hormone of SEQ ID NO: 41 (peptide)
peptide: Ac-EHFRWGRRSSCFGGRMDRIGAQSGLGCNSFRY-NH2
modifications: disulfide 11-27
SMILES: CC[C@H](C)[C@@H]1NC(=O)[C@H](CCCNC(=N)N)NC(=O)[C@H](CC(=O)O)NC(=O)[C@H](CCSC)NC(=O)[C@H](CCCNC(=N)N)NC(=O)CNC(=O)CNC(=O)[C@H](Cc2ccccc2)NC(=O)[C@@H](NC(=O)[C@H](CO)NC(=O)[C@H](CO)NC(=O)[C@H](CCCNC(=N)N)NC(=O)[C@H](CCCNC(=N)N)NC(=O)CNC(=O)[C@H](Cc2c[nH]c3ccccc23)NC(=O)[C@H](CCCNC(=N)N)NC(=O)[C@H](Cc2ccccc2)NC(=O)[C@H](Cc2c[nH]cn2)NC(=O)[C@H](CCC(=O)O)NC(C)=O)CSSC[C@@H](C(=O)N[C@@H](CC(N)=O)C(=O)N[C@@H](CO)C(=O)N[C@@H](Cc2ccccc2)C(=O)N[C@@H](CCCNC(=N)N)C(=O)N[C@@H](Cc2ccc(O)cc2)C(N)=O)NC(=O)CNC(=O)[C@H](CC(C)C)NC(=O)CNC(=O)[C@H](CO)NC(=O)[C@H](CCC(N)=O)NC(=O)[C@H](C)NC(=O)CNC1=O
Consider B3, for which the “EC50 on the production of cGMP” value with ANP receptor (on ANP …) was 8.9 nM.

B4: bifunctional hormone of SEQ ID NO: 46 (peptide)
peptide: Ac-H[dF]RWGPKPVQGSGCPGRKMDRISSSSGLGCKVLRRH-NH2
modifications: disulfide 14-30
SMILES: CC[C@H](C)[C@@H]1NC(=O)[C@H](CCCNC(=N)N)NC(=O)[C@H](CC(=O)O)NC(=O)[C@H](CCSC)NC(=O)[C@H](CCCCN)NC(=O)[C@H](CCCNC(=N)N)NC(=O)CNC(=O)[C@@H]2CCCN2C(=O)[C@@H](NC(=O)CNC(=O)[C@H](CO)NC(=O)CNC(=O)[C@H](CCC(N)=O)NC(=O)[C@@H](NC(=O)[C@@H]2CCCN2C(=O)[C@H](CCCCN)NC(=O)[C@@H]2CCCN2C(=O)CNC(=O)[C@H](Cc2c[nH]c3ccccc23)NC(=O)[C@H](CCCNC(=N)N)NC(=O)[C@@H](Cc2ccccc2)NC(=O)[C@H](Cc2c[nH]cn2)NC(C)=O)C(C)C)CSSC[C@@H](C(=O)N[C@@H](CCCCN)C(=O)N[C@H](C(=O)N[C@@H](CC(C)C)C(=O)N[C@@H](CCCNC(=N)N)C(=O)N[C@@H](CCCNC(=N)N)C(=O)N[C@@H](Cc2c[nH]cn2)C(N)=O)C(C)C)NC(=O)CNC(=O)[C@H](CC(C)C)NC(=O)CNC(=O)[C@H](CO)NC(=O)[C@H](CO)NC(=O)[C@H](CO)NC(=O)[C@H](CO)NC1=O
On to B4, for which the “EC50 on the production of cAMP” value in experiment [1] was found to be 28 nM.

B5: bifunctional hormone of SEQ ID NO: 34 (peptide)
peptide: Ac-H[dF]RWGKP[Nle]CHFGGR[Nle]DRISCYR-NH2
modifications: disulfide 9-20
SMILES: CCCC[C@@H]1NC(=O)[C@H](CCCNC(=N)N)NC(=O)CNC(=O)CNC(=O)[C@H](Cc2ccccc2)NC(=O)[C@H](Cc2c[nH]cn2)NC(=O)[C@@H](NC(=O)[C@H](CCCC)NC(=O)[C@@H]2CCCN2C(=O)[C@H](CCCCN)NC(=O)CNC(=O)[C@H](Cc2c[nH]c3ccccc23)NC(=O)[C@H](CCCNC(=N)N)NC(=O)[C@@H](Cc2ccccc2)NC(=O)[C@H](Cc2c[nH]cn2)NC(C)=O)CSSC[C@@H](C(=O)N[C@@H](Cc2ccc(O)cc2)C(=O)N[C@@H](CCCNC(=N)N)C(N)=O)NC(=O)[C@H](CO)NC(=O)[C@H]([C@@H](C)CC)NC(=O)[C@H](CCCNC(=N)N)NC(=O)[C@H](CC(=O)O)NC1=O
For the molecule B5, in experiment [1], the “EC50 on the production of cAMP” value is 62.5 nM. The “EC50 on the production of cGMP” value with ANP receptor (on ANP …) was found to be 132 nM.

B6: bifunctional hormone of SEQ ID NO: 35 (peptide)
peptide: Ac-H[dF]RWGKP[Nle]CFGGR[Nle]DRIGAQSGLGCNSFRY-NH2
modifications: disulfide 9-25
SMILES: CCCC[C@@H]1NC(=O)[C@H](CCCNC(=N)N)NC(=O)CNC(=O)CNC(=O)[C@H](Cc2ccccc2)NC(=O)[C@@H](NC(=O)[C@H](CCCC)NC(=O)[C@@H]2CCCN2C(=O)[C@H](CCCCN)NC(=O)CNC(=O)[C@H](Cc2c[nH]c3ccccc23)NC(=O)[C@H](CCCNC(=N)N)NC(=O)[C@@H](Cc2ccccc2)NC(=O)[C@H](Cc2c[nH]cn2)NC(C)=O)CSSC[C@@H](C(=O)N[C@@H](CC(N)=O)C(=O)N[C@@H](CO)C(=O)N[C@@H](Cc2ccccc2)C(=O)N[C@@H](CCCNC(=N)N)C(=O)N[C@@H](Cc2ccc(O)cc2)C(N)=O)NC(=O)CNC(=O)[C@H](CC(C)C)NC(=O)CNC(=O)[C@H](CO)NC(=O)[C@H](CCC(N)=O)NC(=O)[C@H](C)NC(=O)CNC(=O)[C@H]([C@@H](C)CC)NC(=O)[C@H](CCCNC(=N)N)NC(=O)[C@H](CC(=O)O)NC1=O
In the case of B6, the “EC50 on the production of cAMP” value in experiment [1] turned out to be 31.4 nM. The “EC50 on the production of cGMP” value with ANP receptor (on ANP …) is 216 nM.

B7: bifunctional hormone of SEQ ID NO: 33 (peptide)
peptide: Ac-H[dF]RWGKPMCFGGRMDRIGAQSGLGCNSFRY-NH2
modifications: disulfide 9-25
SMILES: CC[C@H](C)[C@@H]1NC(=O)[C@H](CCCNC(=N)N)NC(=O)[C@H](CC(=O)O)NC(=O)[C@H](CCSC)NC(=O)[C@H](CCCNC(=N)N)NC(=O)CNC(=O)CNC(=O)[C@H](Cc2ccccc2)NC(=O)[C@@H](NC(=O)[C@H](CCSC)NC(=O)[C@@H]2CCCN2C(=O)[C@H](CCCCN)NC(=O)CNC(=O)[C@H](Cc2c[nH]c3ccccc23)NC(=O)[C@H](CCCNC(=N)N)NC(=O)[C@@H](Cc2ccccc2)NC(=O)[C@H](Cc2c[nH]cn2)NC(C)=O)CSSC[C@@H](C(=O)N[C@@H](CC(N)=O)C(=O)N[C@@H](CO)C(=O)N[C@@H](Cc2ccccc2)C(=O)N[C@@H](CCCNC(=N)N)C(=O)N[C@@H](Cc2ccc(O)cc2)C(N)=O)NC(=O)CNC(=O)[C@H](CC(C)C)NC(=O)CNC(=O)[C@H](CO)NC(=O)[C@H](CCC(N)=O)NC(=O)[C@H](C)NC(=O)CNC1=O
On to B7, for which, in experiment [1], the “EC50 on the production of cAMP” value turned out to be 10.4 nM. In addition, in the experiment with ANP receptor (on ANP …), the “EC50 on the production of cGMP” value was determined as 69 nM.

B8: native ANP (SEQ ID NO: 2) (peptide)
peptide: SLRRSSCFGGRMDRIGAQSGLGCNSFRY
modifications: disulfide 7-23; also: C-terminal amide in Table IV, not in Table I
With B8, in the experiment with ANP receptor (on ANP …), the “EC50 on the production of cGMP” value was found to be 3.3 nM.

B9: bifunctional hormone of SEQ ID NO: 45 (peptide)
peptide: Ac-H[dF]RWSPKMVQGSGCPGRKMDRISSSSGLGCKVLRRH-NH2
modifications: disulfide 14-30
SMILES: CC[C@H](C)[C@@H]1NC(=O)[C@H](CCCNC(=N)N)NC(=O)[C@H](CC(=O)O)NC(=O)[C@H](CCSC)NC(=O)[C@H](CCCCN)NC(=O)[C@H](CCCNC(=N)N)NC(=O)CNC(=O)[C@@H]2CCCN2C(=O)[C@@H](NC(=O)CNC(=O)[C@H](CO)NC(=O)CNC(=O)[C@H](CCC(N)=O)NC(=O)[C@@H](NC(=O)[C@H](CCSC)NC(=O)[C@H](CCCCN)NC(=O)[C@@H]2CCCN2C(=O)[C@H](CO)NC(=O)[C@H](Cc2c[nH]c3ccccc23)NC(=O)[C@H](CCCNC(=N)N)NC(=O)[C@@H](Cc2ccccc2)NC(=O)[C@H](Cc2c[nH]cn2)NC(C)=O)C(C)C)CSSC[C@@H](C(=O)N[C@@H](CCCCN)C(=O)N[C@H](C(=O)N[C@@H](CC(C)C)C(=O)N[C@@H](CCCNC(=N)N)C(=O)N[C@@H](CCCNC(=N)N)C(=O)N[C@@H](Cc2c[nH]cn2)C(N)=O)C(C)C)NC(=O)CNC(=O)[C@H](CC(C)C)NC(=O)CNC(=O)[C@H](CO)NC(=O)[C@H](CO)NC(=O)[C@H](CO)NC(=O)[C@H](CO)NC1=O
For the molecule B9, the “EC50 on the production of cAMP” value in experiment [1] was determined as 365 nM.

B10: bifunctional hormone of SEQ ID NO: 43 (peptide)
peptide: Ac-HRWGKPMCFGGRMDRIGAQSGLGCNSFRY-NH2
modifications: disulfide 8-24
SMILES: CC[C@H](C)[C@@H]1NC(=O)[C@H](CCCNC(=N)N)NC(=O)[C@H](CC(=O)O)NC(=O)[C@H](CCSC)NC(=O)[C@H](CCCNC(=N)N)NC(=O)CNC(=O)CNC(=O)[C@H](Cc2ccccc2)NC(=O)[C@@H](NC(=O)[C@H](CCSC)NC(=O)[C@@H]2CCCN2C(=O)[C@H](CCCCN)NC(=O)CNC(=O)[C@H](Cc2c[nH]c3ccccc23)NC(=O)[C@H](CCCNC(=N)N)NC(=O)[C@H](Cc2c[nH]cn2)NC(C)=O)CSSC[C@@H](C(=O)N[C@@H](CC(N)=O)C(=O)N[C@@H](CO)C(=O)N[C@@H](Cc2ccccc2)C(=O)N[C@@H](CCCNC(=N)N)C(=O)N[C@@H](Cc2ccc(O)cc2)C(N)=O)NC(=O)CNC(=O)[C@H](CC(C)C)NC(=O)CNC(=O)[C@H](CO)NC(=O)[C@H](CCC(N)=O)NC(=O)[C@H](C)NC(=O)CNC1=O
As to B10, in the experiment with ANP receptor (on ANP …), the “EC50 on the production of cGMP” value was found to be 86.8 nM.

For the origin of these results see US20090011997A1 (THERATECHNOLOGIES, published 2009).
